Assay [1] has as its target T1, human MMP9 (human, UniProt P14780 20-707, limits assumed).
T1 construct: also called ヒトMMP9; matrix metalloproteinase-9
Nature of the assay: SPR.

For assay [2], the target named is T1, human MMP9. Nature of the assay: ELISA. Background: An ELISA detects its analyte on a solid surface through an enzyme-linked reagent.
In another assay the target is T2, cynomolgus monkey MMP9 (cynomolgus monkey, UniProt A0A2K5UU71 20-706).
T2 construct: also called カニクイザルMMP9; recombinant cynomolgus MMP9
T2 sequence (A0A2K5UU71 entry or part of it): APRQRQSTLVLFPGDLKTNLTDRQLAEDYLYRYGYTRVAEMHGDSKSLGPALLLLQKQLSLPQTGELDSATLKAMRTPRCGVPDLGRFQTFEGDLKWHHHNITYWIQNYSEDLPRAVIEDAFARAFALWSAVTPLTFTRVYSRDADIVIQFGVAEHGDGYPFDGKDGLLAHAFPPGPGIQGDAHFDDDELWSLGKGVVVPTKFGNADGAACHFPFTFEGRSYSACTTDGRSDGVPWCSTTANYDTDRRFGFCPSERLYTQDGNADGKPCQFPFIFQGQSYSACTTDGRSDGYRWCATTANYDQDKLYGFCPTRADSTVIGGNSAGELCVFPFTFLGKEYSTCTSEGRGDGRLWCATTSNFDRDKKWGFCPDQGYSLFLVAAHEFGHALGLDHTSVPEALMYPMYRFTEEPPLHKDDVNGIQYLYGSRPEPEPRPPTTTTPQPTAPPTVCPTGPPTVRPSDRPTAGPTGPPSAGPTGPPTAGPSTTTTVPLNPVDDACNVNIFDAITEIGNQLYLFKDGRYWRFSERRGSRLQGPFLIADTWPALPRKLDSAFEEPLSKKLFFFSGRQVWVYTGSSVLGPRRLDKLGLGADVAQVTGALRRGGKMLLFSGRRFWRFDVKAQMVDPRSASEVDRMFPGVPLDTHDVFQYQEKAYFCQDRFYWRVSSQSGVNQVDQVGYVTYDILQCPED
Nature of the assay: ELISA.

Another assay deals with T3, rat MMP9 (rat, UniProt P50282 20-708, limits assumed).
T3 construct: also called ラットMMP9; recombinant rat MMP9
T3 sequence (P50282 20-708 limits assumed): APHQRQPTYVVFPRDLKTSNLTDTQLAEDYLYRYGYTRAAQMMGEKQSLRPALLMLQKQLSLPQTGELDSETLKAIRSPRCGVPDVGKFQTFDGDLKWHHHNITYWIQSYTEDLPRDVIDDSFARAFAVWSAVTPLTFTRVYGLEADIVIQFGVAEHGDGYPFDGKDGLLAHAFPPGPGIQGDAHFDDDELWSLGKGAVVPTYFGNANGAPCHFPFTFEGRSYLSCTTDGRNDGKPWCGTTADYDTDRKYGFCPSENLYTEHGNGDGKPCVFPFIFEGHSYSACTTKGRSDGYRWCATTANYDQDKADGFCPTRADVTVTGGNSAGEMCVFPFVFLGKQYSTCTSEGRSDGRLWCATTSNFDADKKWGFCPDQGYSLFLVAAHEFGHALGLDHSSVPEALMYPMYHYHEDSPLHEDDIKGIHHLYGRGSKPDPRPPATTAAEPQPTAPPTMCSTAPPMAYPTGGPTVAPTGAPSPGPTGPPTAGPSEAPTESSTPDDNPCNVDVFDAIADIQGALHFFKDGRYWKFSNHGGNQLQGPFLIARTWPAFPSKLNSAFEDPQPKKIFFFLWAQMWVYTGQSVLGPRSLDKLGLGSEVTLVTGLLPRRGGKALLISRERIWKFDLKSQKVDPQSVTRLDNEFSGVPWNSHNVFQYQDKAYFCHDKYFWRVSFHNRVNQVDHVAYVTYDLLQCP
As to the kind of experiment: ELISA.

The target of assay [3] is T1, human MMP9. Nature of the assay: cell-based or functional assay.
Assay [4] concerns the target T1, human MMP9. As to the kind of experiment: direct binding assay and SPR.
The target in assay [5] is T4, mouse MMP9 (mouse, UniProt P41245 20-730, limits assumed).
T4 construct: The immunogen for AB0046 was a pro/catalytic domain fragment of mouse MMP9; also called マウスMMP9
T4 sequence (P41245 20-730 limits assumed): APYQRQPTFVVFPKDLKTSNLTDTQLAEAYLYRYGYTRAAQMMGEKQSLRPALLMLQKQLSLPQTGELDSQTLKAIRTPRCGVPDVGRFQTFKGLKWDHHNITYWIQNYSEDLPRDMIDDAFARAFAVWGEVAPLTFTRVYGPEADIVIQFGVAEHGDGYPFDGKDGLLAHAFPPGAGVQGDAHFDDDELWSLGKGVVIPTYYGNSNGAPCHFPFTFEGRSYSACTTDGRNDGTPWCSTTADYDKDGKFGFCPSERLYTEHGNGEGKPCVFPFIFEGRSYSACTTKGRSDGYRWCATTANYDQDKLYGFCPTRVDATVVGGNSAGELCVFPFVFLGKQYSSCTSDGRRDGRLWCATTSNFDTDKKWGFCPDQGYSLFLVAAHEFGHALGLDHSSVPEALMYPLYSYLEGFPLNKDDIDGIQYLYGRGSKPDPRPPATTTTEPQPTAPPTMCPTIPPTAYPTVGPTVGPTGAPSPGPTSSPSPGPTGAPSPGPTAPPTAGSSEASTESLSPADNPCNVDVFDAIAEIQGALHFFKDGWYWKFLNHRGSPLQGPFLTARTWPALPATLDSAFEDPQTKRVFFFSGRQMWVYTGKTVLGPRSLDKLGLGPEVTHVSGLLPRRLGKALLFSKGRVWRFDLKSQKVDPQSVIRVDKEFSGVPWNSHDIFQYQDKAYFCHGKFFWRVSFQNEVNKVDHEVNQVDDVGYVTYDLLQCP
As to the kind of experiment: ELISA.

Assay [6] deals with T4, mouse MMP9. As to the kind of experiment: cell-based or functional assay.

Where “and” joins values, the source holds several entries; their conditions need not be identical. Equal entries are not always repeated. Some results are limits rather than exact numbers.

By Kd is commonly meant the constant that tells how readily two partners part at equilibrium.

T1 sequence (P14780 20-707 Q279R/R574P limits assumed): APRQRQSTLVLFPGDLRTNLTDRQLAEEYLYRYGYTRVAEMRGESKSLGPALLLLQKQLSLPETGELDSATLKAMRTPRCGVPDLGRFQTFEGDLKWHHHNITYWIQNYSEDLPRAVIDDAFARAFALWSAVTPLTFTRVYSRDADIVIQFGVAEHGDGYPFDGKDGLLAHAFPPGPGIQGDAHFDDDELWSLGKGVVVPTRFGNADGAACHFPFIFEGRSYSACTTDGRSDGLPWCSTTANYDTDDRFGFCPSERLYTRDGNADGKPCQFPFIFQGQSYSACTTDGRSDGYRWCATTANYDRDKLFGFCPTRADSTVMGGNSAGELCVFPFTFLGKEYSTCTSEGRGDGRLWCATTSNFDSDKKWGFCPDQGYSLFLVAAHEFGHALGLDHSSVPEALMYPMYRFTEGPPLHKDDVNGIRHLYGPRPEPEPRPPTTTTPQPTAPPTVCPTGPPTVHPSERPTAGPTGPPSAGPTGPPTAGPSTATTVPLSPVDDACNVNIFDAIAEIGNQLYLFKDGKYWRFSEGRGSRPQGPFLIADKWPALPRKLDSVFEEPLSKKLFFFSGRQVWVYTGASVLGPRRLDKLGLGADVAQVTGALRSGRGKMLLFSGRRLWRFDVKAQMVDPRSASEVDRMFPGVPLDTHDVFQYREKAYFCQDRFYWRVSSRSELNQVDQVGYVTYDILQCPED

B1: AB0045 (antibody, V domains shown)
VH: QVQLQESGPGLVKPSETLSLTCTVSGFSLLSYGVHWVRQPPGKGLEWLGVIWTGGTTNYNSALMSRFTISKDDSKNTVYLKMNSLKTEDTAIYYCARYYYGMDYWGQGTLVTVSS
VL: DIQMTQSPSSLSASVGDRVTITCKASQDVRNTVAWYQQKPGKAPKLLIYSSSYRNTGVPDRFSGSGSGTDFTLTISSLQAEDVAVYYCQQHYITPYTFGGGTKVEIKR
notes: Humanized, modified human IgG4 (S241P) / kappa; also called AB0045; humanized variant anti-MMP9 antibody
B1: the dissociation constant Kd in the assay with human MMP9 [1] was 0.0088 nM; with human MMP9 [2], < 0.4 nM and 0.168 nM; with cynomolgus monkey MMP9 it was below 0.4 nM; with rat MMP9, below 0.4 nM; in the assay with human MMP9 [4] it was around 0.001 nM. In the assay with human MMP9 [3], the “IC50, MMP9-mediated cleavage of fluorogenic peptide substrate Mca-PLGL-Dpa-AR-NH2” value (“IC50, MMP9-mediated cleavage” for short) was 0.691 nM. The “IC50, MMP9 enzyme assay under steady state” value with human MMP9 [3] is 0.148 nM and 0.161 nM and 0.158 nM.

B2: AB0046 (antibody, V domains shown)
VH: QVQLQQPGSVLVRPGASVKLSCTASGYTFTSYWMNWVKQRPGQGLEWIGEIYPISGRTNYNEKFKVKATLTVDTSSSTAYMDLNSLTSEDSAVYYCARSRANWDDYWGQGTTLTVSS
VL: DIQMTQTTSSLSASLGDRVTISCSASQGISNYLNWYQQKPDGTFKLLIYYTSILHSGVPSRFSGSGSGTDYSLTISNLEPEDIATYYCQQYGWLPRTFGGGTKLEIKR
notes: Mouse IgG1 / kappa; also called AB0046; anti-mouse MMP9 antibody
Consider B2, for which the Kd with mouse MMP9 [5] amounted to 0.218 nM. Further, in the assay with mouse MMP9 [6], the “IC50, MMP9-mediated cleavage” value was 0.352 nM.

B3: AB0041 (antibody, V domains shown)
VH: QVQLKESGPGLVAPSQSLSITCTVSGFSLLSYGVHWVRQPPGKGLEWLGVIWTGGTTNYNSALMSRLSISKDDSKSQVFLKMNSLQTDDTAIYYCARYYYGMDYWGQGTSVTVSS
VL: DIVMTQSHKFMSTSVGDRVSITCKASQDVRNTVAWYQQKTGQSPKLLIYSSSYRNTGVPDRFTGSGSGTDFTFTISSVQAEDLAVYFCQQHYITPYTFGGGTKLEIKR
As to B3, the Kd with human MMP9 [1] was 0.0004 nM; in the assay with cynomolgus monkey MMP9 it was below 0.4 nM; with rat MMP9, below 0.4 nM. The “IC50, MMP9-mediated cleavage” value in the assay with human MMP9 [3] is 0.569 nM.
